According to PMC5381662 (Cell reports, 2016):
Positions count from the first letter of the chain named. Names may count otherwise. Like-named read-outs stand apart in the source and are kept apart here.

Columns and labels:
Assay in all cases: pull-down
[1] = target: Strep II-tagged UAF1 K459E (UniProt Q8TAF3 1-677, K459E)
Strep II-tagged UAF1 [2] = target: T1, Strep II-tagged UAF1 (UniProt Q8TAF3 1-677)
[3] = target: Strep II-tagged UAF1 H599A (UniProt Q8TAF3 1-677, H599A)
[4] = target: Strep II-tagged UAF1 K595E/H599A double mutant (UniProt Q8TAF3 1-677, K595E | H599A)
[5] = target: Strep II-tagged UAF1 K595E (UniProt Q8TAF3 1-677, K595E)
Strep II-tagged UAF1 [6] = target: T1, Strep II-tagged UAF1; remark: listed apart in the source
Strep II-tagged UAF1 [7] = target: T1, Strep II-tagged UAF1; remark: listed apart in the source
RAD51 = target: T2, RAD51 (UniProt Q06609 1-339)
T2 sequence (looked up): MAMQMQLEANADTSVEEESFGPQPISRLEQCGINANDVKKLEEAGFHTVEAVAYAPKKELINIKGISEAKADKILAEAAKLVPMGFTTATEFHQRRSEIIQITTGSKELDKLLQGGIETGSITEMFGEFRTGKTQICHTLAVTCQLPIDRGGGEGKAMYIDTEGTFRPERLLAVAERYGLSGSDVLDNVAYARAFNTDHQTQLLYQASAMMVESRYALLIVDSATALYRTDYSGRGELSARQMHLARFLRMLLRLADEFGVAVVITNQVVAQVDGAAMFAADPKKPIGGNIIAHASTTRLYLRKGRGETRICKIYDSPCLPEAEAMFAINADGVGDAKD

T1 sequence (Q8TAF3 whole entry): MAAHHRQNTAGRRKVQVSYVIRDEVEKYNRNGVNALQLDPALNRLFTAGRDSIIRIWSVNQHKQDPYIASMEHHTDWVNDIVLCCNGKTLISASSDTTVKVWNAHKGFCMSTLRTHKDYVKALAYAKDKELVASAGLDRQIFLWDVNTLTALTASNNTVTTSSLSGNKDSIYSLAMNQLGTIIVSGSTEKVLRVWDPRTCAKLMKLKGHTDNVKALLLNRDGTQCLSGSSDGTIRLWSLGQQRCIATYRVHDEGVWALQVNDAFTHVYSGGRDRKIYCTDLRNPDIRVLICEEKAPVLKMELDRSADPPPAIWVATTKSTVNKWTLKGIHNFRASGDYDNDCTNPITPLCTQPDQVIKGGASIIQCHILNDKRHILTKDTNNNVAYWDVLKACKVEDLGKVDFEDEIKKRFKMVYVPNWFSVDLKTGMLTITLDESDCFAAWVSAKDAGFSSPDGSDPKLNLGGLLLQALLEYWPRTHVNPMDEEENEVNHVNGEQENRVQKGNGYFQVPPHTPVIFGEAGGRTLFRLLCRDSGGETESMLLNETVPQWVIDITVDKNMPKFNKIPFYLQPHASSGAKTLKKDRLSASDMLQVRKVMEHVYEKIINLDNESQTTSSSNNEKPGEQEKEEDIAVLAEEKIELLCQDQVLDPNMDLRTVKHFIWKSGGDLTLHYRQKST
Chain of Strep II-tagged UAF1 H599A (Q8TAF3 whole entry H599A): as the sequence (Q8TAF3 whole entry) above, with H599A counted along it
Chain of Strep II-tagged UAF1 K595E (Q8TAF3 whole entry K595E): as the sequence (Q8TAF3 whole entry) above, with K595E counted along it
Chain of Strep II-tagged UAF1 K459E (Q8TAF3 whole entry K459E): as the sequence (Q8TAF3 whole entry) above, with K459E counted along it
Chain of Strep II-tagged UAF1 K595E/H599A double mutant (Q8TAF3 whole entry K595E/H599A): as the sequence (Q8TAF3 whole entry) above, with K595E, H599A counted along it

B1: GST-tagged RAD51AP1 (natural protein, UniProt Q96B01-2 1-335, looked up)
chain: MVRPVRHKKPVNYSQFDHSDSDDDFVSATVPLNKKSRTAPKELKQDKPKPNLNNLRKEEIPVQEKTPKKRMALDDKLYQRDLEVALALSVKELPTVTTNVQNSQDKSIEKHGSSKIETMNKSPHISNCSVASDYLDLDKITVEDDVGGVQGKRKAASKAAAQQRKILLEGSDGDSANDTEPDFAPGEDSEDDSDFCESEDNDEDFSMRKSKVKEIKKKEVKVKSPVEKKEKKSKSKCNALVTSVDSAPAAVKSESQSLPKKVSLSSDTTRKPLEIRSPSAESKKPKWVPPAASGGSRSSSSPLVVVSVKSPNQSLRLGLSRLARVKPLHPNATST
binding result [1]: binds
binding result (Strep II-tagged UAF1 [2]): binds
binding result [3]: binds
binding result [4]: binds
binding result [5]: binds

B2: RAD51AP1 1-145 fragment (domain or fragment, UniProt Q96B01-2 1-145, looked up)
chain: MVRPVRHKKPVNYSQFDHSDSDDDFVSATVPLNKKSRTAPKELKQDKPKPNLNNLRKEEIPVQEKTPKKRMALDDKLYQRDLEVALALSVKELPTVTTNVQNSQDKSIEKHGSSKIETMNKSPHISNCSVASDYLDLDKITVEDD
binding result (Strep II-tagged UAF1 [6]): binds

B3: RAD51AP1 H329A mutant (natural protein, UniProt Q96B01-2 1-335, looked up)
chain: B1 chain with H329A
binding result (Strep II-tagged UAF1 [6]): binds

B4: RAD51AP1 fragment, amino acid residues 95-187 (domain or fragment, UniProt Q96B01-2 95-187, looked up)
chain: TVTTNVQNSQDKSIEKHGSSKIETMNKSPHISNCSVASDYLDLDKITVEDDVGGVQGKRKAASKAAAQQRKILLEGSDGDSANDTEPDFAPGE
binding result (Strep II-tagged UAF1 [6]): binds

B5: RAD51AP1 ΔN25 mutant (domain or fragment, UniProt Q96B01-2 26-335, looked up)
chain: VSATVPLNKKSRTAPKELKQDKPKPNLNNLRKEEIPVQEKTPKKRMALDDKLYQRDLEVALALSVKELPTVTTNVQNSQDKSIEKHGSSKIETMNKSPHISNCSVASDYLDLDKITVEDDVGGVQGKRKAASKAAAQQRKILLEGSDGDSANDTEPDFAPGEDSEDDSDFCESEDNDEDFSMRKSKVKEIKKKEVKVKSPVEKKEKKSKSKCNALVTSVDSAPAAVKSESQSLPKKVSLSSDTTRKPLEIRSPSAESKKPKWVPPAASGGSRSSSSPLVVVSVKSPNQSLRLGLSRLARVKPLHPNATST
binding result (Strep II-tagged UAF1 [6]): binds

B6: RAD51AP1 (no tag named) (natural protein, UniProt Q96B01-2 1-335, looked up)
chain: B1 chain
binding result (Strep II-tagged UAF1 [7]): binds
binding result (RAD51): binds
